From patent publication US20250304643A1 (BAINAN BIOTECH, published 2025) come the findings set out here.

The term pEC50 denotes the negative decadic logarithm of the EC50, by convention in mol/L. The low end stands for a high EC50, the high end for a low EC50.

Common to all, as to assay: cell-based or functional assay
The target in test [1] is T1, human GIPR (glucose-dependent insulinotropic polypeptide receptor) (human, UniProt P48546 22-466).
T1 sequence (looked up): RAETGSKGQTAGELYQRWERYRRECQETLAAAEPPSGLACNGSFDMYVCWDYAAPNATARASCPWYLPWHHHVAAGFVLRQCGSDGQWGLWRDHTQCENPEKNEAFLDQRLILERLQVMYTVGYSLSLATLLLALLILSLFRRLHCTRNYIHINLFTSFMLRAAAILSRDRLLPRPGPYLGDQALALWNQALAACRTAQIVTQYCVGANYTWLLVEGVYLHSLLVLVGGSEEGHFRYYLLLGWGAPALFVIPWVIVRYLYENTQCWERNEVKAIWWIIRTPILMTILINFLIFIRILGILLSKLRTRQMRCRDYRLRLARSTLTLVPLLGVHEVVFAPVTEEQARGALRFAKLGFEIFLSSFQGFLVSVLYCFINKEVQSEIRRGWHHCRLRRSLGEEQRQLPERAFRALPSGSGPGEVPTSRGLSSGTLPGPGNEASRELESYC

Test [2] deals with T2, human GLP-1R (GLP-1 receptor) (human, UniProt P43220 24-463).
The target of test [3] is T3, human GLP-2R (glucagon-like peptide-2 receptor) (human, UniProt O95838 1-553).
T3 sequence (looked up): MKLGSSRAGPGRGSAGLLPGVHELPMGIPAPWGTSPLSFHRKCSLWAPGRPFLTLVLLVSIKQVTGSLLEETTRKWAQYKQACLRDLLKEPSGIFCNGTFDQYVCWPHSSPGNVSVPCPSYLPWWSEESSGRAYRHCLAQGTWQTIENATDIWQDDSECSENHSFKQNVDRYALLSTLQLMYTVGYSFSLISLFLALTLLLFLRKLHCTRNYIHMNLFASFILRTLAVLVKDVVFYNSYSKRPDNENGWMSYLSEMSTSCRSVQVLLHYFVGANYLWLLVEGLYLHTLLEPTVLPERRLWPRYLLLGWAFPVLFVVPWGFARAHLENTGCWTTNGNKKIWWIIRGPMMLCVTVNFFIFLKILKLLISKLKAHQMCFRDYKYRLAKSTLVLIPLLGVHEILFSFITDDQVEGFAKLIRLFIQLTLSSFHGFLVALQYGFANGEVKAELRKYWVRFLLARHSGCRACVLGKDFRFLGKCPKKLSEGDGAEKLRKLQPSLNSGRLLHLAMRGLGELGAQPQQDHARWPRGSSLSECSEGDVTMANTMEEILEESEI

Test [4] concerns the target T2, human GLP-1R (GLP-1 receptor). This is another data set of the same source.
Test [5] addresses T1, human GIPR (glucose-dependent …). The source holds these as a separate data set.
For test [6], the target named is T3, human GLP-2R (glucagon-like peptide-2 …). The source holds these as a separate data set.
Test [7] addresses macaque GIPR (macaque).
The target of test [8] is T4, rat GIPR (rat, UniProt P43219 19-455).
T4 sequence (looked up): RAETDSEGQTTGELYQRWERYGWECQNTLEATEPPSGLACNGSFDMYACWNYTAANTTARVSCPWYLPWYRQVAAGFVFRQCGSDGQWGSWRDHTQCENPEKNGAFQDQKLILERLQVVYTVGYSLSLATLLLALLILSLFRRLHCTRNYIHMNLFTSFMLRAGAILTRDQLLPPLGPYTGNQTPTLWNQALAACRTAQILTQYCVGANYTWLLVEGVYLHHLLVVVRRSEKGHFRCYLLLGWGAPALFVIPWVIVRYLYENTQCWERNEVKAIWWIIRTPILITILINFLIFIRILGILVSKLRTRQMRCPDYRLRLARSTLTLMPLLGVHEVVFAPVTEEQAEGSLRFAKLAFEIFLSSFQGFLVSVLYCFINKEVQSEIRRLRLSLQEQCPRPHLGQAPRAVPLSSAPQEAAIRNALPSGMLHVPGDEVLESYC

Where two headings read alike, the source gives them in different places. *1 amine or outer side, *2 acyl side, *3 side chain or, on linkers, in order; H or OH if unused. Where no end group is shown, it is not given here. Side-chain parts run from the residue outwards. [ ]: non-standard residue; d: D form. The star is where a group is joined. C18 diacid = O=C(O)CCCCCCCCCCCCCCCCC(=O)*; C16 diacid = O=C(O)CCCCCCCCCCCCCCC(=O)*; γGlu = O=C(O)[C@H](CCC(=O)[*:2])N[*:1]; Palmitoyl = CCCCCCCCCCCCCCCC(=O)*; Decanoyl = CCCCCCCCCC(=O)*; AEEA = NCCOCCOCC(=O)O; Aib = CC(C)(N)C(=O)O

As to HADGTFISDYSTILDKLAARDFINWLIQTK(C16 fatty acid)ITK [Compound no. 57], in test [1], the “cAMP assay: EC50 (nM) GIPR” value stood at 12.6 nM and the “cAMP assay: Efficacy GIPR” value was 97%. Also, in test [2], the “cAMP assay: EC50 (nM) GLP-1R” value came to 100 nM, the “cAMP assay: Efficacy GLP-1R” value amounted to 73% and the “cAMP assay: logEC50 GLP-1R” value amounted to 7.
In the case of Palmitoyl-HADGTFISDYSTILDNLAARDFINWLIETKITKNDWKHNITQ [Compound no. 51], in test [3], the “cAMP assay: EC50 (nM) GLP-2R” value is 12.6 nM, the “cAMP assay: Efficacy GLP-2R” value worked out at 66% and the “cAMP assay: logEC50 GLP-2R” value came out at 7.9. Further, in test [1], the “cAMP assay: EC50 (nM) GIPR” value worked out at 0.398 nM and the “cAMP assay: Efficacy GIPR” value is 104%.
Take Palmitoyl-HADGTFISDYSTILDELAARDFINWLIQTKITKNDWKHNITQ [Compound no. 48]: in test [3], the “cAMP assay: EC50 (nM) GLP-2R” value is 25.1 nM, the “cAMP assay: Efficacy GLP-2R” value is 69% and the “cAMP assay: logEC50 GLP-2R” value came out at 7.6. Also, in test [1], the “cAMP assay: EC50 (nM) GIPR” value came to 2.82 nM and the “cAMP assay: Efficacy GIPR” value was determined as 112%.
The like results for Palmitoyl-HADGTFISDYSTILDNLAARDFINWLIATKITKNDWKHNITQ [Compound no. 52] were, in that order, 7.9 nM, 68%, 8.1, 0.251 nM and 96%.
Consider HXDGTFISDYSTILDNLAARDFINWLIQTKITK (Aib at 2; K(C10) at 33 (C-terminal residue); C-terminus -OH) [Compound no. 63], for which the “cAMP assay: Efficacy GLP-1R” value in test [4] was determined as 84%. The “cAMP assay: Efficacy GIPR” value in test [5] was found to be 99%. Further, the “cAMP assay: Efficacy GLP-2R” value in test [6] was 105%.
The like results for HXDGTFISDYSTXLDNLAARDFINWLIQTKITK (Aib at 2 and 13; K(C10) at 33 (C-terminal residue); C-terminal amide (-NH2)) [Compound no. 65] were, in that order, 76%, 107% and 77%.
For the molecule HXDGTFISDYKTILDNLAARDFINWLIQTKITK (Aib at position 2; K(γGlu-C16) at position 11; C-terminal -OH) [Compound no. 11], in test [7], the “Efficacy (%)” value came to 92.5% and the pEC50 came to 9.
Regarding HGEGSFGSDMSIALDKLAARDFVNWLLQTKITD (also: C14 fatty acid at C-terminus, attachment not given here) [Compound no. 66], the “cAMP assay: Efficacy GIPR” value in test [5] worked out at 97%.
Consider H[Aib]DGTFISDYK([γGlu-Decanoyl])T[Aib]LDNLAARDFINWLIQTKITGNDWKHNITQ-OH [Compound no. 54], for which, in test [7], the “Efficacy (%)” value was 71.8% and the negative-log EC50 (pEC50) was 7.7.

B1: Compound no. 25 (peptide)
peptide: H[Aib]DGK([γGlu-C16 diacid])FISDYST[Aib]LDNLAARDFINWLIQTKITK-OH
modifications: N-terminus assumed
SMILES: CC[C@H](C)[C@H](NC(=O)[C@H](Cc1ccccc1)NC(=O)[C@H](CCCCNC(=O)CC[C@H](NC(=O)CCCCCCCCCCCCCCC(=O)O)C(=O)O)NC(=O)CNC(=O)[C@H](CC(=O)O)NC(=O)C(C)(C)NC(=O)[C@@H](N)Cc1c[nH]cn1)C(=O)N[C@@H](CO)C(=O)N[C@@H](CC(=O)O)C(=O)N[C@@H](Cc1ccc(O)cc1)C(=O)N[C@@H](CO)C(=O)N[C@H](C(=O)NC(C)(C)C(=O)N[C@@H](CC(C)C)C(=O)N[C@@H](CC(=O)O)C(=O)N[C@@H](CC(N)=O)C(=O)N[C@@H](CC(C)C)C(=O)N[C@@H](C)C(=O)N[C@@H](C)C(=O)N[C@@H](CCCNC(=N)N)C(=O)N[C@@H](CC(=O)O)C(=O)N[C@@H](Cc1ccccc1)C(=O)N[C@H](C(=O)N[C@@H](CC(N)=O)C(=O)N[C@@H](Cc1c[nH]c2ccccc12)C(=O)N[C@@H](CC(C)C)C(=O)N[C@H](C(=O)N[C@@H](CCC(N)=O)C(=O)N[C@H](C(=O)N[C@@H](CCCCN)C(=O)N[C@H](C(=O)N[C@H](C(=O)N[C@@H](CCCCN)C(=O)O)[C@@H](C)O)[C@@H](C)CC)[C@@H](C)O)[C@@H](C)CC)[C@@H](C)CC)[C@@H](C)O
Take B1: in test [8], the “Efficacy (%)” value turned out to be 71.7% and the negative logarithm of the EC50 (pEC50) was found to be 8.
As to Palmitoyl-HADGTFISDYST[Aib]LDNLAARDFINWLIQTKITKNDWKHNITQ [Compound no. 53], in test [3], the “cAMP assay: EC50 (nM) GLP-2R” value was 4 nM, the “cAMP assay: Efficacy GLP-2R” value turned out to be 79% and the “cAMP assay: logEC50 GLP-2R” value was 8.2. Besides, in test [1], the “cAMP assay: EC50 (nM) GIPR” value worked out at 0.316 nM and the “cAMP assay: Efficacy GIPR” value turned out to be 90%.
Consider HADGTFISDYSTILDK([AEEA-AEEA-γGlu-C18 diacid])LAARDFINWLIQTKGKK [Compound no. 64], for which, in test [4], the “cAMP assay: Efficacy GLP-1R” value was found to be 85%. In test [6], the “cAMP assay: Efficacy GLP-2R” value is 75%.
With HADGTFISDYST[Aib]LDK([AEEA-AEEA-γGlu-C18 diacid])LAARDFINWLIQTKGKK [Compound no. 62], the “cAMP assay: Efficacy GLP-1R” value in test [4] came to 85%. The “cAMP assay: Efficacy GIPR” value in test [5] is 86%. The “cAMP assay: Efficacy GLP-2R” value in test [6] came out at 83%.
On to Palmitoyl-HADGTFISDYSTILDNLAARDFIEWLIQTKITKNDWKHNITQ [Compound no. 50], for which, in test [3], the “cAMP assay: EC50 (nM) GLP-2R” value was 10 nM, the “cAMP assay: Efficacy GLP-2R” value came to 70% and the “cAMP assay: logEC50 GLP-2R” value is 8. Further, in test [1], the “cAMP assay: EC50 (nM) GIPR” value is 0.891 nM and the “cAMP assay: Efficacy GIPR” value is 101%.
The like results for Palmitoyl-HADGTFISDYSTILDNLAARDFINWLIQTKITKAEWKHAITQ [Compound no. 49] were, in that order, 35.5 nM, 92%, 7.5, 2.82 nM and 105%.
Turning to HADGTFISDYSTILDNLAARDFINWLIQTKGKK([AEEA-AEEA-γGlu-C18 diacid]) (also: K33: γGlu-C18-diacid linker 2xAEEA-γGlu) [Compound no. 60], the “cAMP assay: Efficacy GLP-1R” value in test [4] worked out at 105%. In addition, the “cAMP assay: Efficacy GIPR” value in test [5] was determined as 93%. For the same molecule, the “cAMP assay: Efficacy GLP-2R” value in test [6] was found to be 90%.
